Values belong to the binder of their own block, whether it stands above or below them. Where no end group is shown, it is not given here.
Biological target: T1, MOB1A wild-type (human, UniProt Q9H8S9-1 2-216)
T1 construct: also called MOB1A WT; full-length nonphosphorylated human MOB1A; source: E. coli BL21 (DE3) CodonPlus RIL, purified (glutathione-Sepharose, TEV cleavage, subtractive IMAC, SEC); not shown: His6, N-terminal, cleaved; GST, N-terminal, cleaved
T1 sequence (looked up): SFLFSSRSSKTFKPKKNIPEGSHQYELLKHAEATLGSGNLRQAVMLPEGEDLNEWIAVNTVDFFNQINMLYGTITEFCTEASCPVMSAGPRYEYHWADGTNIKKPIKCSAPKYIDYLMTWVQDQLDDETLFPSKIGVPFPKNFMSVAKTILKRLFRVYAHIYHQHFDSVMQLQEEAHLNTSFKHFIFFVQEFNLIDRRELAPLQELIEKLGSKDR
Assay: crystal structure; MOB1A mixed with MST1 phosphopeptide at 1:1.5 mole ratio; hanging drops, 0.1 M MES pH 6.0, 0.2 M LiCl, 20% PEG 6000
Details: both partners purified

binding result: binds
B1: MST1 pT353 phosphopeptide (15-mer, crystallization) (peptide)
peptide: VASTMTDGANTMIEH
modifications: also: phosphothreonine at 353 (place in peptide not given here)
notes: MST1 (STK4), human, 15-mer encompassing pT353; also called MST1-pT353 peptide; source: synthetic peptide, bought: Biomatik

binding result: binds
B2: MST1 pT367 phosphopeptide (15-mer, crystallization) (peptide)
peptide: DDTLPSQLGTMVINA
modifications: also: phosphothreonine at 367 (place in peptide not given here)
notes: MST1 (STK4), human, 15-mer encompassing pT367; also called MST1-pT367 peptide; source: synthetic peptide, bought: Biomatik

Reference: PMC5461540, “MOB1 Mediated Phospho-recognition in the Core Mammalian Hippo Pathway * ^([image sbox.jpg])” (Molecular & Cellular Proteomics : MCP, 2017)
